In PMC4434323 one finds binding signal (PBM E-score (-0.5 to 0.5)) data, which are given here for 69 sequences.

The target of series [1] is pag-3 (F45B8.4) (Caenorhabditis elegans) (UniProt G5EDE1).
Series [2] deals with lin-48 (F34D10.5) (Caenorhabditis elegans) (UniProt G5EDU6).
Series [3] concerns the target T1, Y44A6D.3 (Y44A6D.3) (Caenorhabditis elegans) (UniProt Q9XXE0).
T1 sequence: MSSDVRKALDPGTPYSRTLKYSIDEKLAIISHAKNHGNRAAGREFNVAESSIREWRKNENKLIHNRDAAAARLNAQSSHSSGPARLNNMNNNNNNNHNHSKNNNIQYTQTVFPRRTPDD

Series [4] concerns the target T2, lsy-27 (F47H4.1) (Caenorhabditis elegans) (UniProt O45526).
T2 sequence: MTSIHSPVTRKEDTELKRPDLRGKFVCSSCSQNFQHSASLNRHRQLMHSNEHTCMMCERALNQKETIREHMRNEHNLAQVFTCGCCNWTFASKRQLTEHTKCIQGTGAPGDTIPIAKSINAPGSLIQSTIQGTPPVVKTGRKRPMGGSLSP

The target in series [5] is T3, F13H6.1 (F13H6.1) (Caenorhabditis elegans) (UniProt H2KZR6).
T3 sequence: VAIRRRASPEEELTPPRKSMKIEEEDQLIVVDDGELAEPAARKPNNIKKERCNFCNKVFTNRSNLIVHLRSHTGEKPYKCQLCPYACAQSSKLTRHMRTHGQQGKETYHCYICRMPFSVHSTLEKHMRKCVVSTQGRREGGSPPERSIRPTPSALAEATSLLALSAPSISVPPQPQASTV

For series [6], the target named is T4, F10B5.3 (F10B5.3) (Caenorhabditis elegans) (UniProt Q09534).
T4 sequence: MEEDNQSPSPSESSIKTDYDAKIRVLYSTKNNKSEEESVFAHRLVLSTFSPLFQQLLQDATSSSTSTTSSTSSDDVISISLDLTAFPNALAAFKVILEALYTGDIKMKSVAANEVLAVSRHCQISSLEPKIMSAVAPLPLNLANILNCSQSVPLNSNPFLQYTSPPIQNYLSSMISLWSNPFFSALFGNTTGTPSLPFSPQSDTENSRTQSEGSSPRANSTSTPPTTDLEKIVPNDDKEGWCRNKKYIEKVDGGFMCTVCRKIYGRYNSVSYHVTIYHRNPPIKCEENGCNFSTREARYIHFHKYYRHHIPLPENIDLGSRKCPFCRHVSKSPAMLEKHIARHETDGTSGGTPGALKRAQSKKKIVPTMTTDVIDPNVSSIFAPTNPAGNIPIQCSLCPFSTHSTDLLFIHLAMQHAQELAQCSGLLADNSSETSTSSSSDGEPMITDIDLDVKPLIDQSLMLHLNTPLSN

Series [7] has as its target T5, nhr-204 (R02C2.4) (Caenorhabditis elegans) (UniProt O44543).
T5 sequence: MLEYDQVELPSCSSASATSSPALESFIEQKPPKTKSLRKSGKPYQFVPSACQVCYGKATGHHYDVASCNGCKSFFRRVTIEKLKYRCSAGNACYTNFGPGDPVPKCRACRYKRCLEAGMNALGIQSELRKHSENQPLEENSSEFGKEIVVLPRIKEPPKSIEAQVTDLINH

Sequence of lin-48 (F34D10.5) (Caenorhabditis elegans) (G5EDU6 83-280): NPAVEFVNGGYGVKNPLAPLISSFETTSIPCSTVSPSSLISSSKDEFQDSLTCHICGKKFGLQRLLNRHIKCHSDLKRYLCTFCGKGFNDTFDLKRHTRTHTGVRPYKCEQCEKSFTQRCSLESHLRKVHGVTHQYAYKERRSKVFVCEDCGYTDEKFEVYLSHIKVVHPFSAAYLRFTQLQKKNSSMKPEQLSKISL
Sequence of pag-3 (F45B8.4) (Caenorhabditis elegans) (G5EDE1 76-311): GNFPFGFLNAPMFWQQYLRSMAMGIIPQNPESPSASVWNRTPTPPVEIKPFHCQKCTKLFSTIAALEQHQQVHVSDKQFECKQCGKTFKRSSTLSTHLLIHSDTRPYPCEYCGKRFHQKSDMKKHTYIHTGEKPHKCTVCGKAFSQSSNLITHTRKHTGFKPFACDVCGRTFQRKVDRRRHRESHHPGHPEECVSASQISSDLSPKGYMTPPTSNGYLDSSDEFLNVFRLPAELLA

In turn, “AATCTGTG (double strand) [8-mer AATCTGTG]” had a binding signal (PBM E-score (-0.5 to 0.5)) in series [1] of 0.487. In turn, “CCGTTACA (double strand) [8-mer CCGTTACA]” yielded a binding signal (PBM E-score (-0.5 to 0.5)) in series [2] of 0.486. In series [3], “ATGCGCAG (double strand) [8-mer ATGCGCAG]” displayed a binding signal (PBM E-score (-0.5 to 0.5)) of 0.493. “GTAACGGA (double strand) [8-mer GTAACGGA]” registered a binding signal (PBM E-score (-0.5 to 0.5)) in series [2] of 0.485. For the sequence “GCTTCACC (double strand) [8-mer GCTTCACC]”, in series [4], the binding signal (PBM E-score (-0.5 to 0.5)) is 0.491. In the case of “AAATCTGG (double strand) [8-mer AAATCTGG]”, the binding signal (PBM E-score (-0.5 to 0.5)) in series [1] amounted to 0.493. On to “ATAACGGG (double strand) [8-mer ATAACGGG]”, for which the binding signal (PBM E-score (-0.5 to 0.5)) in series [2] came out at 0.494. The same measure, in the same setting: the result for “ACCGTTAG (double strand) [8-mer ACCGTTAG]” reads 0.489. As to “AAATCACG (double strand) [8-mer AAATCACG]”, the binding signal (PBM E-score (-0.5 to 0.5)) in series [1] amounted to 0.492. The same measure, in the same setting: for “AATCACAG (double strand) [8-mer AATCACAG]” the value was 0.491. Sequence “AACCGTTA (double strand) [8-mer AACCGTTA]” had a binding signal (PBM E-score (-0.5 to 0.5)) in series [2] of 0.49. In turn, “GTGGTCAA (double strand) [8-mer GTGGTCAA]” had a binding signal (PBM E-score (-0.5 to 0.5)) in series [5] of 0.496.

In turn, “ATGCGCGG (double strand) [8-mer ATGCGCGG]” yielded a binding signal (PBM E-score (-0.5 to 0.5)) in series [3] of 0.494.

“CTTGACCA (double strand) [8-mer CTTGACCA]” had a binding signal (PBM E-score (-0.5 to 0.5)) in series [5] of 0.496. With “CCGTTATC (double strand) [8-mer CCGTTATC]”, the binding signal (PBM E-score (-0.5 to 0.5)) in series [2] is 0.49. Regarding “ACCGCGCA (double strand) [8-mer ACCGCGCA]”, the binding signal (PBM E-score (-0.5 to 0.5)) in series [3] stood at 0.495. In turn, “AAATCTGA (double strand) [8-mer AAATCTGA]” registered a binding signal (PBM E-score (-0.5 to 0.5)) in series [1] of 0.486.

“AAATCACA (double strand) [8-mer AAATCACA]”: the binding signal (PBM E-score (-0.5 to 0.5)) in series [1] stood at 0.49. In series [3], “CCGCGCAC (double strand) [8-mer CCGCGCAC]” came in with a binding signal (PBM E-score (-0.5 to 0.5)) of 0.496. For “GTTGACCA (double strand) [8-mer GTTGACCA]”, in series [5], the binding signal (PBM E-score (-0.5 to 0.5)) amounted to 0.494. On the same count and under the same terms, the result for “CTGACCAC (double strand) [8-mer CTGACCAC]” reads 0.495. The same measure, in the same setting: the result for “AGTGACCA (double strand) [8-mer AGTGACCA]” reads 0.498. In series [2], “ACCGTTAT (double strand) [8-mer ACCGTTAT]” had a binding signal (PBM E-score (-0.5 to 0.5)) of 0.493. Regarding “ACCGTTAC (double strand) [8-mer ACCGTTAC]”, the binding signal (PBM E-score (-0.5 to 0.5)) in series [2] worked out at 0.497. In series [4], “AGCTTCAC (double strand) [8-mer AGCTTCAC]” registered a binding signal (PBM E-score (-0.5 to 0.5)) of 0.493. Turning to “TACACGAA (double strand) [8-mer TACACGAA]”, in series [6], the binding signal (PBM E-score (-0.5 to 0.5)) was 0.476. For the sequence “GCCGCGCA (double strand) [8-mer GCCGCGCA]”, the binding signal (PBM E-score (-0.5 to 0.5)) in series [3] was determined as 0.494.

Sequence “AGTGGTCA (double strand) [8-mer AGTGGTCA]” showed a binding signal (PBM E-score (-0.5 to 0.5)) in series [5] of 0.497.

“AAAATCTG (double strand) [8-mer AAAATCTG]” gave a binding signal (PBM E-score (-0.5 to 0.5)) in series [1] of 0.491. Regarding “CTGCGCAA (double strand) [8-mer CTGCGCAA]”, in series [3], the binding signal (PBM E-score (-0.5 to 0.5)) stood at 0.495. Sequence “CCTCGAAA (double strand) [8-mer CCTCGAAA]” gave a binding signal (PBM E-score (-0.5 to 0.5)) in series [6] of 0.474. In series [3], “TCCGCGCA (double strand) [8-mer TCCGCGCA]” displayed a binding signal (PBM E-score (-0.5 to 0.5)) of 0.495.

“AGCTTCAG (double strand) [8-mer AGCTTCAG]” displayed a binding signal (PBM E-score (-0.5 to 0.5)) in series [4] of 0.491. Sequence “AATGGTCA (double strand) [8-mer AATGGTCA]” had a binding signal (PBM E-score (-0.5 to 0.5)) in series [5] of 0.495. Sequence “ACTGACCA (double strand) [8-mer ACTGACCA]” returned a binding signal (PBM E-score (-0.5 to 0.5)) in series [5] of 0.497. Take “TTCCGGAA (double strand) [8-mer TTCCGGAA]”: the binding signal (PBM E-score (-0.5 to 0.5)) in series [6] was determined as 0.49. In series [5], “ACTGGTCA (double strand) [8-mer ACTGGTCA]” came in with a binding signal (PBM E-score (-0.5 to 0.5)) of 0.495.

Consider “AATGACCA (double strand) [8-mer AATGACCA]”, for which, in series [5], the binding signal (PBM E-score (-0.5 to 0.5)) came out at 0.496. Sequence “CCGTTATA (double strand) [8-mer CCGTTATA]” returned a binding signal (PBM E-score (-0.5 to 0.5)) in series [2] of 0.494.

Sequence “GCTGCGCA (double strand) [8-mer GCTGCGCA]” returned a binding signal (PBM E-score (-0.5 to 0.5)) in series [3] of 0.494. In series [1], “CAAATCTG (double strand) [8-mer CAAATCTG]” came in with a binding signal (PBM E-score (-0.5 to 0.5)) of 0.489. On the same count and under the same terms, for “AATCACTG (double strand) [8-mer AATCACTG]” the value was 0.49.

Regarding “GTCCGTTA (double strand) [8-mer GTCCGTTA]”, in series [2], the binding signal (PBM E-score (-0.5 to 0.5)) came out at 0.487. In turn, “AAATCTCA (double strand) [8-mer AAATCTCA]” returned a binding signal (PBM E-score (-0.5 to 0.5)) in series [1] of 0.487. With “CCGCGCAG (double strand) [8-mer CCGCGCAG]”, in series [3], the binding signal (PBM E-score (-0.5 to 0.5)) was found to be 0.495. Turning to “CCTGCGCA (double strand) [8-mer CCTGCGCA]”, in series [3], the binding signal (PBM E-score (-0.5 to 0.5)) was determined as 0.493.

Take “TCGTGGAA (double strand) [8-mer TCGTGGAA]”: the binding signal (PBM E-score (-0.5 to 0.5)) in series [6] worked out at 0.483. Consider “ATAACGGA (double strand) [8-mer ATAACGGA]”, for which the binding signal (PBM E-score (-0.5 to 0.5)) in series [2] stood at 0.485. For the sequence “CAGATTTA (double strand) [8-mer CAGATTTA]”, the binding signal (PBM E-score (-0.5 to 0.5)) in series [1] worked out at 0.489. Sequence “AGCTTCAT (double strand) [8-mer AGCTTCAT]” registered a binding signal (PBM E-score (-0.5 to 0.5)) in series [4] of 0.494. For “TTCGAGAA (double strand) [8-mer TTCGAGAA]”, the binding signal (PBM E-score (-0.5 to 0.5)) in series [6] stood at 0.477. The sequence “GATGACCA (double strand) [8-mer GATGACCA]” yielded a binding signal (PBM E-score (-0.5 to 0.5)) in series [5] of 0.494. With “AGTAACGG (double strand) [8-mer AGTAACGG]”, the binding signal (PBM E-score (-0.5 to 0.5)) in series [2] came to 0.487.

On to “GGTGGTCA (double strand) [8-mer GGTGGTCA]”, for which the binding signal (PBM E-score (-0.5 to 0.5)) in series [5] stood at 0.494. Take “TAACGGTA (double strand) [8-mer TAACGGTA]”: in series [2], the binding signal (PBM E-score (-0.5 to 0.5)) was 0.494. In series [3], “CTGCGCAG (double strand) [8-mer CTGCGCAG]” registered a binding signal (PBM E-score (-0.5 to 0.5)) of 0.496. Turning to “GACCGTTA (double strand) [8-mer GACCGTTA]”, the binding signal (PBM E-score (-0.5 to 0.5)) in series [2] was found to be 0.496.

Consider “GAGTGACC (double strand) [8-mer GAGTGACC]”, for which the binding signal (PBM E-score (-0.5 to 0.5)) in series [5] is 0.496. In the case of “AAATCTGT (double strand) [8-mer AAATCTGT]”, the binding signal (PBM E-score (-0.5 to 0.5)) in series [1] was found to be 0.49. In series [1], “AATCTCAG (double strand) [8-mer AATCTCAG]” had a binding signal (PBM E-score (-0.5 to 0.5)) of 0.49.

In series [6], “TCTGGAAA (double strand) [8-mer TCTGGAAA]” gave a binding signal (PBM E-score (-0.5 to 0.5)) of 0.487.

The sequence “ACTGCGCA (double strand) [8-mer ACTGCGCA]” yielded a binding signal (PBM E-score (-0.5 to 0.5)) in series [3] of 0.498. In turn, “CAAATCAC (double strand) [8-mer CAAATCAC]” displayed a binding signal (PBM E-score (-0.5 to 0.5)) in series [1] of 0.487. With “AAGTGACC (double strand) [8-mer AAGTGACC]”, the binding signal (PBM E-score (-0.5 to 0.5)) in series [5] was determined as 0.494.

Sequence “TAACGGGA (double strand) [8-mer TAACGGGA]” yielded a binding signal (PBM E-score (-0.5 to 0.5)) in series [2] of 0.49. “GGTGCGCA (double strand) [8-mer GGTGCGCA]” showed a binding signal (PBM E-score (-0.5 to 0.5)) in series [3] of 0.493. With “AGCTTCTG (double strand) [8-mer AGCTTCTG]”, in series [4], the binding signal (PBM E-score (-0.5 to 0.5)) was 0.491.

“AATCAGTG (double strand) [8-mer AATCAGTG]” had a binding signal (PBM E-score (-0.5 to 0.5)) in series [1] of 0.491. Turning to “ATTGGTCA (double strand) [8-mer ATTGGTCA]”, the binding signal (PBM E-score (-0.5 to 0.5)) is 0.477 in series [7] and 0.495 in series [5].
